Biological target: T1, MBP-EIN3N (UniProt O24606 141-352)
T1 sequence: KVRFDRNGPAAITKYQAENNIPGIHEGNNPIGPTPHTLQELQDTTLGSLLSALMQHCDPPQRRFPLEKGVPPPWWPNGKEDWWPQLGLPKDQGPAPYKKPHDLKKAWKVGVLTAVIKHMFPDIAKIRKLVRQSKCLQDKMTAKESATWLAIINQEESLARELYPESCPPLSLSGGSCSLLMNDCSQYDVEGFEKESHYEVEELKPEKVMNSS
Test: EMSA; LightShift Chemiluminescent EMSA kit (Pierce), 10 min at room temperature, 6% native polyacrylamide gel; buffer, salt and pH not stated
Conditions: protein: recombinant; tags: MBP; chain copies: 2; label: biotin; blunt

B1: ORE1 EBS (dsDNA)
DNA 1: ATACTTTACAAGGTTCATGCATGCATAC
DNA 2: GTATGCATGCATGAACCTTGTAAAGTAT
binding result: binds
